Results as given in US7105166.

What was measured:
CTLA4Ig (human) [1] = test: 125I-B7Ig (4 nM) on plate-coated CTLA4Ig
CTLA4Ig (human) [2] = test: solid phase competition of 125I-B7Ig binding to immobilized CTLA4Ig
CTLA4Ig (human) [3] = test: Scatchard analysis of competition data, 125I-B7Ig on immobilized CTLA4Ig
[4] = target: CD28 expressed on transfected cells (human) (UniProt P10747); test: inhibition of 125I-B7Ig binding to cell surface expressed CD28
[5] = target: CD28Ig (human) [IgG part: P01857]; test: inhibition of 125I-B7Ig binding to immobilized CD28Ig
[6] = target: B7 antigen (B7-1, CD80) expressed on cells (human) (UniProt P33681); test: cell-based or functional assay
B7Ig (human) = B7Ig (human) (UniProt P33681); test: solid phase competition of 125I-B7Ig binding to immobilized CTLA4Ig

## B7Ig (from UniProt P33681 35-249; P01857 99-330) (Fc fusion)
CTLA4Ig (human) [1]
  radioactivity bound to wells treated without competitor: 28300 cpm
CTLA4Ig (human) [2]
  IC50: 175 nM
CTLA4Ig (human) [3]
  Kd: 12 nM

## mAb 9.3 (antibody)
[4]
  inhibition of ^125I-B7Ig binding: > 90%
[5]
  inhibition of ^125I-B7Ig binding: > 90%

## mAb BB-1 (antibody)
[6]
  inhibition of Th-induced IgM production: 65%
B7Ig (human)
  IC50: 22 nM
